Data as given in patent US20230132667.
Where two headings read alike, the source gives them in different places.

Tests used:
[1] = biological target: T1, P-TEFb/AFF4/Tat(1-57) core super elongation complex (CDK9/CycT1/AFF4/Tat) (Homo sapiens (CDK9, CycT1, AFF4)?; HIV-1 (Tat)) (UniProt P50750+O60563+Q9UHB7+P04608); settings: CITED mutational data (apparently), cited from earlier work
[2] = biological target: T1, P-TEFb/AFF4/Tat(1-57) core super elongation complex (CDK9/CycT1/AFF4/Tat) (Homo sapiens (CDK9, CycT1, AFF4)?; HIV-1 (Tat)); experiment: EMSA; settings: 250x yeast tRNA

Sequence	Kd ([1]; [15-18], CAAA loop) [nM]	Kd ([1]; wild-type UGGG loop) [nM]	Kd ([2]; 0.5 nM RNA, 0-90 nM complex, 6% native gel) [nM]	Kd ([2]; TAR preincubated with 10 nM Palbociclib) [nM]
GGCAGAUCUGAGCCCAAAAGCUCUCUGCC [HIV-1 TAR loop mutant UGGG to CAAA]	> 10	–	–	–
GGCAGAUCUGAGCCUGGGAGCUCUCUGCC [HIV-1 TAR]	–	0.23	0.34	35.6
